Measurements as given in patent US12679888B2, “IL-18 binding protein (IL-18BP) and antibodies for treating inflammatory diseases” (AB2 BIO SA, priority 2015, dated 2026).
Read-outs that look alike come from different tables or passages of the source.

Tests used:
C57BL/6J mice = assay: Four-day exacerbation/tobacco smoke mouse model (COPD exacerbation); format: in vivo
Experimental: The aim of the study was to determine the effect of IL-18BP, administered at three dose levels, by the sub-cutaneous route, on Polyinosinic:polycytidylic acid-induced exacerbation of tobacco-smoke induced pulmonary inflammation, in C57BL/6J mice. High level of dexamethasone, dosed orally, was included in the study as a reference agent.
Mice received either vehicle (PBS) or IL-18BP. IL-18BP was given subcutaneously to 3 groups of animals respectively at 1, 3 or 10 mg/kg 2 h prior to the initial tobacco smoke exposure from Day 1 to Day 4. Mice received orally either vehicle or dexamethasone (10 mg/kg) 1 h prior to each twice daily exposure. Mice received by intranasal administration either the vehicle or Polyinosinic:polycytidylic acid (2 mg/kg) 2 h prior to the initial air or tobacco smoke exposure on Day 4 to induce lung inflammation exacerbation. Tobacco smoke exposure was performed during the morning and afternoon as follow: Day 1 for 15 min, Day 2 for 25 min, Day 3 for 30 min and Day 4 for 30 min.
Following the above treatments, animals were terminally anaesthetised on Day 5. After that, a blood sample was taken via the sub-clavian artery (plasma) and the animals were bronchoalveloar lavaged with 3×0.4 ml of PBS for further cellular and cytokine/mediator analysis. Bronchoalveolar lavage supernatants were stored at −80° C. for cytokine/mediator analysis. Cells recovered from the BALF were counted using the Sysmex cell counter.

IL-18 [1] = biological target: T1, IL-18 (Mus musculus, UniProt P70380); assay: Dissociation constant (Kd) used for dose selection, mouse; format: binding
T1 sequence (P70380 36-192): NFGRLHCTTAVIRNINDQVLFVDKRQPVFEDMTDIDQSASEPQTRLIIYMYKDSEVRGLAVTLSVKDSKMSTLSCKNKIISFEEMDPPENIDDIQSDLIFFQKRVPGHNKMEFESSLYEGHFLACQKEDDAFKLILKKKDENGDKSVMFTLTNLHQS
Experimental: (§1) No validated animal model has been described for this condition. In the collagen-induced arthritis murine model the active dose for r-hIL-18BP administered intraperitoneally (i.p.) was determined to be 1 mg/Kg body weight. […] Altogether the expected pharmacologically active dose for a “humanized mice” treated by s.c. route with r-hIL-18BP is round 4.85 mg/kg. […] Although the guidance was initially written for extrapolating animal doses to healthy volunteers, its principles can be applied also to patients. […] Those doses will be likely also ineffective in AoSD patients considering that blood levels of IL-18 in AoSD are higher than those reported in the two above mentioned conditions.

IL-18 [2] = biological target: T2, IL-18 (Homo sapiens, UniProt Q14116); assay: New BIAcore setup: IL-18BP bound to chip, affinity to IL-18; format: binding; design: purchased; settings: IL-18BP bound to BIAcore chip
T2 sequence (Q14116 37-193): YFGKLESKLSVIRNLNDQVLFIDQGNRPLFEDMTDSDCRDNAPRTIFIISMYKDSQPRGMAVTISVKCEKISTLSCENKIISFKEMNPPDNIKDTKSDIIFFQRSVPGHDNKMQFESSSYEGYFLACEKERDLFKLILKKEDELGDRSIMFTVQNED
Source text: Following the above KD results obtain by titration, we tested the binding affinity of IL-18BP to IL-18 with a simpler BIAcore setup consisting of binding IL-18BP to the BIAcore chip and then testing its affinity to IL-18. The method setup is the contrary of Kim et al 2000 ^8, who bound IL-18 to the BIAcore chip with a monoclonal antibody and then tested the affinity of the complex antibody-IL-18 to IL-18BP.

IL-18 [3] = biological target: T2, IL-18; settings: cited from earlier work
[4] = Bioavailability of r-hIL-18BP by i.p. and s.c. route; format: in vivo, mouse
Experimental: as §1

[5] = 3 and 10 mg/kg s.c., compared to positive control dexamethasone

B1: IL-18BP: soluble glycoprotein of 164 amino acids produced from a Chinese Hamster Ovary cell line; isoform a, SEQ ID NO 7 (protein, listed as Homo sapiens)
chain: TPVSQTTTAATASVRSTKDPCPSQPPVFPAAKQCPALEVTWPEVEVPLNGTLSLSCVACSRFPNFSILYWLGNGSFIEHLPGRLWEGSTSRERGSTGTQLCKALVLEQLTPALHSTNFSCVLVDPEQVVQRHVVLAQLWAGLRATLPPTQEALPSSHSSPQQQG
modifications: CHO glycosylation; MISC_FEATURE - Human interleukin-18 binding protein isoform a
What does the source list for B1?
exacerbated inflammation inhibition (total cell infiltration) (C57BL/6J mice; 10 mg/kg s.c.): clear and statistically relevant efficacy; neutrophil infiltration in the lung airway space (C57BL/6J mice; 10 mg/kg s.c.): best statistical efficacy; neutrophil infiltration in the lung airway space (C57BL/6J mice; [5]): statistically valuable efficacy; total cell infiltration in the lung airway space (C57BL/6J mice; [5]): statistically valuable efficacy; weight loss (C57BL/6J mice; 3 and 10 mg/kg s.c., large majority of mice): 6-7%; tolerability (C57BL/6J mice; IL-18BP s.c.): well tolerated; weight loss mitigation (C57BL/6J mice; IL-18BP s.c., Students t-test and ANOVA): mitigated by IL-18BP even though both Students t-test and ANOVA statistical analyses were not significant; neutrophil infiltration in the lung airway space (C57BL/6J mice; IL-18BP s.c., day 5): inhibited; total cell infiltration in the lung airway space (C57BL/6J mice; IL-18BP s.c., day 5): significant mitigation of total cell infiltration; Kd (IL-18 [1]): 0.4 nM; Ka (IL-18 [2]): 5.3 ± 1.2 10^+5/MS; Kd (IL-18 [2]): 0.02 to 0.03 nM; Kd (IL-18 [3]; BIAcore measurements, read-out: KD reported in the literature (Kim et al 2000)): 0.4 nM; Kd (IL-18 [3]; IL-18-IL-18BP complex, stoichiometry 1:1, read-out: Dissociation constant KD as calculated by Kim et al 2000): 0.4 nM; bioavailability ([4]; i.p. route): ~100%; bioavailability ([4]; s.c. route): 55%
